Target: T1, ACADVL (mouse (endogenous in heart and kidney)), P50544
T1 chain: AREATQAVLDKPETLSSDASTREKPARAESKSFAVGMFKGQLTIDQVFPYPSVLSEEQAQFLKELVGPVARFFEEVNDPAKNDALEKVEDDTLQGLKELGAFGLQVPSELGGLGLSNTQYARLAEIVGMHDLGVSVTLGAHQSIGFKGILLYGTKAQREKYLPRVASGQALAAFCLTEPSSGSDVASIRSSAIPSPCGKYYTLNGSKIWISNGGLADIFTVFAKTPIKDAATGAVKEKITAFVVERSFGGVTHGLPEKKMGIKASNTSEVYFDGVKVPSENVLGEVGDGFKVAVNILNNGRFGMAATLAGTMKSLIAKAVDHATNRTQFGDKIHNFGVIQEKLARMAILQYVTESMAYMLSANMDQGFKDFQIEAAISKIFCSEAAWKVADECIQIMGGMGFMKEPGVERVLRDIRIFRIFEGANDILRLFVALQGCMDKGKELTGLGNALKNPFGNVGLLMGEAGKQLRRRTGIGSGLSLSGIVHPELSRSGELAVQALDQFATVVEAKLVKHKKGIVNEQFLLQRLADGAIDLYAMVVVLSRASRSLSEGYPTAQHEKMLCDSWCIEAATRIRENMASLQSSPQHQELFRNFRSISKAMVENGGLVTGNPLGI
Assay: cryo-EM structure
Conditions: remark: other sources report otherwise

stoichiometry N: 2
B1: ACADVL, P50544 42-656 (natural protein)
chain: AREATQAVLDKPETLSSDASTREKPARAESKSFAVGMFKGQLTIDQVFPYPSVLSEEQAQFLKELVGPVARFFEEVNDPAKNDALEKVEDDTLQGLKELGAFGLQVPSELGGLGLSNTQYARLAEIVGMHDLGVSVTLGAHQSIGFKGILLYGTKAQREKYLPRVASGQALAAFCLTEPSSGSDVASIRSSAIPSPCGKYYTLNGSKIWISNGGLADIFTVFAKTPIKDAATGAVKEKITAFVVERSFGGVTHGLPEKKMGIKASNTSEVYFDGVKVPSENVLGEVGDGFKVAVNILNNGRFGMAATLAGTMKSLIAKAVDHATNRTQFGDKIHNFGVIQEKLARMAILQYVTESMAYMLSANMDQGFKDFQIEAAISKIFCSEAAWKVADECIQIMGGMGFMKEPGVERVLRDIRIFRIFEGANDILRLFVALQGCMDKGKELTGLGNALKNPFGNVGLLMGEAGKQLRRRTGIGSGLSLSGIVHPELSRSGELAVQALDQFATVVEAKLVKHKKGIVNEQFLLQRLADGAIDLYAMVVVLSRASRSLSEGYPTAQHEKMLCDSWCIEAATRIRENMASLQSSPQHQELFRNFRSISKAMVENGGLVTGNPLGI
